Data from patent US20200179497A1.

Biological target: IVIg (Octagam)
Assay: cell-based or functional assay

B1: pCART202 (enzyme)
chain: MDDYQRNATEAYAKEVPHQITSVWTKGVTPLTPEQFTQGEDVIHAPYLAHQGWYDITKAFDGKDNLLCGAATAGNMLHWWFDQNKTEIEAYLSKHPEKQKIIFNNQELFDLKAAIDTKDSQTNSQLFNYFRDKAFPNLSARQLGVMPDLVLDMFINGYYLNVFKTQSTDVNRPYQDKDKRGGIFDAVFTRGDQTTLLTARHDLKNKGLNDISTIIKQELTEGRALALSHTYANVSISHVINLWGADFNAEGNLEAIYVTDSDANASIGMKKYFVGINAHGHVAISAKKIEGENIGAQVLGLFTLSSGKDIWQKLSGGGHHHHHH
For B1, the enzyme concentration giving an intense scIgG band on SDS-PAGE was 0.94 ng/mL.

B2: pCART229 (enzyme)
chain: MDDYQRNATEAYAKEVPHQITSVWTKGVTPPEQFTQGEDVIHAPYLAHQGWYDITKAFDGKDNLLCGAATAGNMLHWWFDQNKTEIEAYLSKHPEKQKIIFRNQELFDLKAAIDTKDSQTNSQLFNYFRDKAFPNLSARQLGVMPDLVLDMFINGYYLNVFKTQSTDVNRPYQDKDKRGGIFDAVFTRGNQTTLLTARHDLKNKGLNDISTIIKQELTEGRALALSHTYANVSISHVINLWGADFNAEGNLEAIYVTDSDANASIGMKKYFVGINAHGHVAISAKKIEGENIGAQVLGLFTLSSGKDIWQKLSGGGHHHHHH
Work on B2 yielded a Conc. of enzyme, 1st IgG heavy chain, IgG to scIgG (gel) of 1900 ng/mL and a Conc. of enzyme, 2nd IgG heavy chain, scIgG to F(ab')2 (gel) of 7500 ng/mL.

B3: pCART210 (enzyme)
chain: MDDYQRNATEAYAKEVPHQITSVWTKGVTPPEQFTQGEDVIHAPYLANQGWYDITKAFDGKDNLLCGAATAGNMLHWWFDQNKTEIEAYLSKHPEKQKIIFRNQELFDLKEAIRTKDSQTNSQLFEYFRDKAFPYLSARQLGVMPDLVLDMFINGYYLNVFKTQSTDVKRPYQDKDKRGGIFDAVFTRGNQTTLLTARHDLKNKGLNDISTIIKEELTKGRALALSHTYANVSISHVINLWGADFNAEGNLEAIYVTDSDANASIGMKKYFVGINKHGHVAISAKKIEGENIGAQVLGLFTLSSGKDIWQKLNGGGHHHHHH
B3 gave an enzyme concentration giving mainly scIgG on SDS-PAGE of 0.9 ng/mL.

B4: pCART203 (enzyme)
chain: MDDYQRNATEAYAKEVPHQITSVWTKGVTPPEQFTQGEDVIHAPYLAHQGWYDITKAFDGKDNLLCGAATAGNMLHWWFDQNKTEIEAYLSKHPEKQKIIFNNQELFDLKAAIDTKDSQTNSQLFNYFRDKAFPNLSARQLGVMPDLVLDMFINGYYLNVFKTQSTDVNRPYQDKDKRGGIFDAVFTRGDQTTLLTARHDLKNKGLNDISTIIKQELTEGRALALSHTYANVSISHVINLWGADFNAEGNLEAIYVTDSDANASIGMKKYFVGINAHGHVAISAKKIEGENIGAQVLGLFTLSSGKDIWQKLSGGGHHHHHH
In the case of B4, the enzyme concentration giving an intense scIgG band on SDS-PAGE is reported as 0.94 ng/mL and the enzyme concentration giving mainly scIgG on SDS-PAGE is reported as 0.9 ng/mL.

B5: pCART208 (enzyme)
chain: MDDYQRNATEAYAKEVPHQITSVWTKGVTPPEQFTQGEDVIHAPYLAHQGWYDITKAFDGKDNLLCGAATAGNMLHWWFDQNKTEIEAYLSKHPEKQKIIIRNQELFDLKAAIDTKDSQTNSQLFNYFRDKAFPNLSARQLGVMPDLVLDMFINGYYLNVFKTQSTDVNRPYQDKDKRGGIFDAVFTRGDQTTLLTARHDLKNKGLNDISTIIKQELTEGRALALSHTYANVSISHVINLWGADFNAEGNLEAIYVTDSDANASIGMKKYFVGINAHGHVAISAKKIEGENIGAQVLGLFTLSSGKDIWQKLSGGGHHHHHH
For B5, the enzyme concentration giving a dominating F(ab')2 band on SDS-PAGE was 1.9 ng/mL and the enzyme concentration giving mainly scIgG on SDS-PAGE was 0.5 ng/mL.

B6: pCART204 (enzyme)
chain: MDDYQRNATEAYAKEVPHQITSVWTKGVTPPEQFRYNNEDVIHAPYLAHQGWYDITKAFDGKDNLLCGAATAGNMLHWWFDQNKTEIEAYLSKHPEKQKIIFNNQELFDLKAAIDTKDSQTNSQLFNYFRDKAFPNLSARQLGVMPDLVLDMFINGYYLNVFKTQSTDVNRPYQDKDKRGGIFDAVFTRGDQTTLLTARHDLKNKGLNDISTIIKQELTEGRALALSHTYANVSISHVINLWGADFNAEGNLEAIYVTDSDANASIGMKKYFVGINAHGHVAISAKKIEGENIGAQVLGLFTLSSGKDIWQKLSGGGHHHHHH
With B6 the enzyme concentration giving an intense scIgG band on SDS-PAGE was 0.94 ng/mL.
